Laboratory results reported in patent publication US20200283521A1 (GRANULAR THERAPEUTICS, published 2020).
Where a chain is given by its changes, count along the chain named. Where two headings read alike, the source gives them in different places. One block for each binder: values may come before it.

Columns and labels:
Experiment in all cases: direct ELISA on coated protein, IgG1
hEpCAM-Fc [1] = molecular target: T1, hEpCAM-Fc (human, UniProt P16422)
T1 construct: Fc fusion; member of the panel m9
T1 sequence (looked up): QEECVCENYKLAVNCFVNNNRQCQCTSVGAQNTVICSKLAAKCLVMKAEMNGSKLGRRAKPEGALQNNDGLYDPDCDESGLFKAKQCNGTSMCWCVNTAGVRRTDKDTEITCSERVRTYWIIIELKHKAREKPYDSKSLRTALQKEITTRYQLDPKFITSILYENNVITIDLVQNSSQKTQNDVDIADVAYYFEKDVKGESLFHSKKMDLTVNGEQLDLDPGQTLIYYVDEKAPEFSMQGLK

hDR6-Fc = molecular target: T2, hDR6-Fc (human, UniProt O75509)
T2 construct: Fc fusion; member of the panel m9
T2 sequence (looked up): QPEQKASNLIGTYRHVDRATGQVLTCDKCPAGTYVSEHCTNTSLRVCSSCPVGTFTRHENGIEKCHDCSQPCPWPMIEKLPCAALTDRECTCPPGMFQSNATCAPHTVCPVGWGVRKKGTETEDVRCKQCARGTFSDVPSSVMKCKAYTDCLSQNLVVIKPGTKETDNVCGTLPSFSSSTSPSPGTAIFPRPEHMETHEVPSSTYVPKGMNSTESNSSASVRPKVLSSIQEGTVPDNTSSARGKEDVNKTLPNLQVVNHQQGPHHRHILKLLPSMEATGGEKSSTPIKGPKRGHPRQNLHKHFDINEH

hVCAM-1 = molecular target: T3, hVCAM-1 (human, UniProt P19320)
T3 construct: purified recombinant protein; member of the panel m9
T3 sequence (looked up): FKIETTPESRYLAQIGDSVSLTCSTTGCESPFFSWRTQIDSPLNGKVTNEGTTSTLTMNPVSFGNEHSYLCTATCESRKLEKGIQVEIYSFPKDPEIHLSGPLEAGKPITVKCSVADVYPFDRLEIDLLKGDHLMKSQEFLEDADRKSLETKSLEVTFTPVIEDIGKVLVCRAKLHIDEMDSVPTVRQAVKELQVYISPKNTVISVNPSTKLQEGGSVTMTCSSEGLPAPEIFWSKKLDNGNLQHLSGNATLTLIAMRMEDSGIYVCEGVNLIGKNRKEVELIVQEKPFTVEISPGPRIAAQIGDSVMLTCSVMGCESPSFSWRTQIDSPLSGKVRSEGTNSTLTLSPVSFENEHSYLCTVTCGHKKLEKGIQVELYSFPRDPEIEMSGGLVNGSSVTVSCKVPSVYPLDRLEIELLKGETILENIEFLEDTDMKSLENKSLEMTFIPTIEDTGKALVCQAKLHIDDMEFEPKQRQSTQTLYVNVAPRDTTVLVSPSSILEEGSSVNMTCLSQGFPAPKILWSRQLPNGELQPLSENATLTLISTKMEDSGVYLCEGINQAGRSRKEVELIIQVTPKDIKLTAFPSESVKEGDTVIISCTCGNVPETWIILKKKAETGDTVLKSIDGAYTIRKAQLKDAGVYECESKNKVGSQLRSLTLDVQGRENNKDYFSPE

hICAM-1-Fc [2] = molecular target: T4, hICAM-1-Fc (human, UniProt P05362)
T4 construct: Fc fusion; member of the panel m9

hDR3-Fc [3] = molecular target: T5, hDR3-Fc (human, UniProt Q93038)
T5 construct: Fc fusion; member of the panel m9
T5 sequence (looked up): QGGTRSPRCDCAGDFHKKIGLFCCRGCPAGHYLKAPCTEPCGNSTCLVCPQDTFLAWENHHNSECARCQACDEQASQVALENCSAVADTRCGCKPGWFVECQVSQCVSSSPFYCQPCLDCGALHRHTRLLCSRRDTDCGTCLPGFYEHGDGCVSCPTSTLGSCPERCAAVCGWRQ

hTWEAK-Fc [4] = molecular target: T6, hTWEAK-Fc (human, UniProt O43508)
T6 construct: Fc fusion; member of the panel m9
T6 sequence (looked up): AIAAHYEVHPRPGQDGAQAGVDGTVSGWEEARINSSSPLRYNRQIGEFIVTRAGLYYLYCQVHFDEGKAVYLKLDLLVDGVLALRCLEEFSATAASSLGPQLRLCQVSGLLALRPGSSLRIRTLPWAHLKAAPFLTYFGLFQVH

h4-1BB-Fc = molecular target: T7, h4-1BB-Fc
T7 construct: member of the panel m9

hEpCAM-Fc [5] = molecular target: T1, hEpCAM-Fc; remark: listed apart in the source
hOX40-Fc = molecular target: T8, hOX40-Fc
T8 construct: member of the panel m9
T8 chain: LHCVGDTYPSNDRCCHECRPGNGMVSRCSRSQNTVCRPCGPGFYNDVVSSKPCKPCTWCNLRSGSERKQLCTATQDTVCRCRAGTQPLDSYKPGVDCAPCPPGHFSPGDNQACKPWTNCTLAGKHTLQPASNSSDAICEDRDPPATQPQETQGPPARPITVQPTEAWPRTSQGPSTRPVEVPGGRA

hLTBR-Fc = molecular target: T9, hLTBR-Fc (human, UniProt P36941)
T9 construct: Fc fusion; member of the panel m9

hICAM-1-Fc [6] = molecular target: T4, hICAM-1-Fc; remark: listed apart in the source
hDR3-Fc [7] = molecular target: T5, hDR3-Fc; remark: listed apart in the source
hCD4 = molecular target: T10, hCD4 (human, UniProt P01730)
T10 construct: purified recombinant protein; member of the panel m9

hTWEAK-Fc [8] = molecular target: T6, hTWEAK-Fc; remark: listed apart in the source

T4 sequence (P05362 28-480 limits assumed): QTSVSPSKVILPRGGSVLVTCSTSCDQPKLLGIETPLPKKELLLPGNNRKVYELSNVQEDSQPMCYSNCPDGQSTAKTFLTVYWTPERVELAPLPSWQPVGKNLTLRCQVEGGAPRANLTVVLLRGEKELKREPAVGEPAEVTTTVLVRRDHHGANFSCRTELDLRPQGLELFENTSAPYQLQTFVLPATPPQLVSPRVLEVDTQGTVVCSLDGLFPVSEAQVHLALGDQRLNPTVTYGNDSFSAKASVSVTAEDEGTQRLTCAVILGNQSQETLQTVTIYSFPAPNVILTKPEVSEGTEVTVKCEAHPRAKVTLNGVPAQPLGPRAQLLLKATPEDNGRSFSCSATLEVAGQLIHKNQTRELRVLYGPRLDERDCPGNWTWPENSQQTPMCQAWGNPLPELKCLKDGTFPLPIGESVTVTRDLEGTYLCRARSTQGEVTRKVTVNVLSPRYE
T7 sequence (chain, as listed by the source limits assumed): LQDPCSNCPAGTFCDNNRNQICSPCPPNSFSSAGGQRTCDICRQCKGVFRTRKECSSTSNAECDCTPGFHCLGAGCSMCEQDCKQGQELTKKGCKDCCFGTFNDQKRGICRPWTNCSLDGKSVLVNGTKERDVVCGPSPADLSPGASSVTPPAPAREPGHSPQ
T9 sequence (P36941 28-227 limits assumed): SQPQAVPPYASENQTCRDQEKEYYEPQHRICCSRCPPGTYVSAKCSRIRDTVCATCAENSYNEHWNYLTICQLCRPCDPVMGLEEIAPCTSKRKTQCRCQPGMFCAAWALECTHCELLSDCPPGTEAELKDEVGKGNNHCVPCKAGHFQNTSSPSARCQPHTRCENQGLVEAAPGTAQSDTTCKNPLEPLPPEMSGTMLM

binding result (hEpCAM-Fc [1]): no binding (tested: 1 µg/ml) | binding result (hDR6-Fc): no binding (tested: 1 µg/ml) | binding result (hVCAM-1): no binding (tested: 1 µg/ml) | binding result (hICAM-1-Fc [2]): no binding (tested: 1 µg/ml) | binding result (hDR3-Fc [3]): no binding (tested: 1 µg/ml) | binding result (hTWEAK-Fc [4]): no binding (tested: 1 µg/ml)
B1: MH5, human IgG1 (antibody, V domains shown)
VH: QVQLVQSGAEVKKPGASVKVSCKASGYTFTDYYMNWVRQAPGQGLEWMGRIYPGSGNTYYAQKFQGRVTMTRDTSTSTVYMELSSLRSEDTAVYYCARGVYYYDYWGQGTLVTVSS
VL: DIQMTQSPSSLSASVGDRVTITCRASQGIRTNLAWFQQKPGKAPKSLIYSASSLQSGVPSRFSGSGSGTDFTLTISSLQPEDFATYYCQQYANYPRTFGGGTKVEIK
notes: IgG1; also called C-KIT-MH5; C-KIT-MHS

binding result (h4-1BB-Fc): no binding (tested: 1 µg/ml) | binding result (hEpCAM-Fc [5]): no binding (tested: 1 µg/ml) | binding result (hOX40-Fc): no binding (tested: 1 µg/ml) | binding result (hLTBR-Fc): no binding (tested: 1 µg/ml) | binding result (hICAM-1-Fc [6]): no binding (tested: 1 µg/ml) | binding result (hDR3-Fc [7]): no binding (tested: 1 µg/ml) | binding result (hCD4): no binding (tested: 1 µg/ml) | binding result (hTWEAK-Fc [8]): no binding (tested: 1 µg/ml)
B2: MH5.22 (antibody, IgG1, V domains shown)
VH: B1 VH with Y32F, G54A, Y101W
VL: B1 VL with S50A
notes: IgG1; also called C-KIT-MH5.22
